Measured values taken from IntAct's records for PubMed 30721249.

B1: Oxysterol-binding protein-related protein 1 (Homo sapiens), Q9BXW6 (parent)
chain: MNTEAEQQLLHHARNGNAEEVRQLLETMARNEVIADINCKGRSKSNLGWTPLHLACYFGHRQVVQDLLKAGAEVNVLNDMGDTPLHRAAFTGRKELVMLLLEYNADTTIVNGSGQTAKEVTHAEEIRSMLEAVERTQQRKLEELLLAAAREGKTTELTALLNRPNPPDVNCSDQLGNTPLHCAAYRAHKQCALKLLRSGADPNLKNKNDQKPLDLAQGAEMKHILVGNKVIYKALKRYEGPLWKSSRFFGWRLFWVVLEHGVLSWYRKQPDAVHNIYRQGCKHLTQAVCTVKSTDSCLFFIKCFDDTIHGFRVPKNSLQQSREDWLEAIEEHSAYSTHYCSQDQLTDEEEEDTVSAADLKKSLEKAQSCQQRLDREISNFLKMIKECDMAKEMLPSFLQKVEVVSEASRETCVALTDCLNLFTKQEGVRNFKLEQEQEKNKILSEALETLATEHHELEQSLVKGSPPASILSEDEFYDALSDSESERSLSRLEAVTARSFEEEGEHLGSRKHRMSEEKDCGGGDALSNGIKKHRTSLPSPMFSRNDFSIWSILRKCIGMELSKITMPVIFNEPLSFLQRLTEYMEHTYLIHKASSLSDPVERMQCVAAFAVSAVASQWERTGKPFNPLLGETYELVRDDLGFRLISEQVSHHPPISAFHAEGLNNDFIFHGSIYPKLKFWGKSVEAEPKGTITLELLEHNEAYTWTNPTCCVHNIIVGKLWIEQYGNVEIINHKTGDKCVLNFKPCGLFGKELHKVEGYIQDKSKKKLCALYGKWTECLYSVDPATFDAYKKNDKKNTEEKKNSKQMSTSEELDEMPVPDSESVFIIPGSVLLWRIAPRPPNSAQMYNFTSFAMVLNEVDKDMESVIPKTDCRLRPDIRAMENGEIDQASEEKKRLEEKQRAARKNRSKSEEDWKTRWFHQGPNPYNGAQDWIYSGSYWDRNYFNLPDIY

Variants of: B1
Settings: with rab7a_human RAB7A

effect of a mutation on the interaction	Variant
disrupting interaction strength	F58E
